Measurements reported in the Human Domainome abundance scans (Beltran et al. 2025).
± gives the uncertainty stated by the source.

B1: Transcription elongation regulator 1-like protein, residues 448 to 504; numbered along this chain, Q5VWI1 (parent)
chain: LPLEERVTHFRDMLLERGVSAFSTWEKELHKIVFDPRYLLLNSEERKQIFEQFVKTR

Variants of: B1
Assay: abundance fitness (aPCA) (normalised: wild type 0, dead -1); higher = more abundant; growth selection in yeast, the domain comes from the species named
Conditions: Homo sapiens
In the case of LPLEERVTHFRDMLLERGVSAFSTWEKELHKIVFDPRYLLLNSEERRQIFEQFVKTR [K47R], the abundance fitness is reported as 0.025 ± 0.1.
LPLEERVTHFRDMLLERQVSAFSTWEKELHKIVFDPRYLLLNSEERKQIFEQFVKTR [G18Q] showed an abundance fitness of -0.454 ± 0.31.
LPLKERVTHFRDMLLERGVSAFSTWEKELHKIVFDPRYLLLNSEERKQIFEQFVKTR [E4K] gave an abundance fitness of 0.132 ± 0.16.
Variant LPLLERVTHFRDMLLERGVSAFSTWEKELHKIVFDPRYLLLNSEERKQIFEQFVKTR [E4L] has an abundance fitness of -0.151 ± 0.2.
Work on LPLMERVTHFRDMLLERGVSAFSTWEKELHKIVFDPRYLLLNSEERKQIFEQFVKTR [E4M] yielded an abundance fitness of -0.646 ± 0.45.
For LPLSERVTHFRDMLLERGVSAFSTWEKELHKIVFDPRYLLLNSEERKQIFEQFVKTR [E4S], the abundance fitness was 0.033 ± 0.21.
LPLEERVTHFRDMLLERGVSAFSTWSKELHKIVFDPRYLLLNSEERKQIFEQFVKTR [E26S] showed an abundance fitness of -0.658 ± 0.2.
Work on LPLEERVTHFRDMLLERGVSAFSTWAKELHKIVFDPRYLLLNSEERKQIFEQFVKTR [E26A] yielded an abundance fitness of -0.636 ± 0.28.
With LPLEERVTHFRDMLLERGVSAFSTWEKELHKIVFDPRYLLLNSEERKQIFEQAVKTR [F53A] the abundance fitness was -0.949 ± 0.1.
LPLEERVTHFRDMLLERGVSAFSTWEKELHKIVFDPRYLLLNSEERKQIFEQSVKTR [F53S] showed an abundance fitness of -0.718 ± 0.12.
LPLEERVTHFRDMLLERGVSAFSTWEKELHKIVFDPRYLLLNSEERKQIFEQEVKTR [F53E] showed an abundance fitness of -0.964 ± 0.35.
In the case of LPLEERVTHFRDMLLERGVSAFSTWEKELHKIVFDPRYLLANSEERKQIFEQFVKTR [L41A], the abundance fitness is reported as -0.681 ± 0.1.
For LPLEERVTHFRDMLLERGVSAFSTWEKELHKPVFDPRYLLLNSEERKQIFEQFVKTR [I32P], the abundance fitness was -0.418 ± 0.12.
Work on LPLEERVTHFRDMLLERGVSAFSTWEKELNKIVFDPRYLLLNSEERKQIFEQFVKTR [H30N] yielded an abundance fitness of -0.547 ± 0.35.
Variant LPLEERVTHFRDMLLERGVSAFSTWEKELAKIVFDPRYLLLNSEERKQIFEQFVKTR [H30A] has an abundance fitness of -0.714 ± 0.29.
Work on LPLEERVTHFRDMLLERGVSAFSTWEKELKKIVFDPRYLLLNSEERKQIFEQFVKTR [H30K] yielded an abundance fitness of -0.403 ± 0.25.
LPLEERVTHFRDMLLERGVSAFSTWEKELHKIVFDVRYLLLNSEERKQIFEQFVKTR [P36V] gave an abundance fitness of -0.717 ± 0.13.
In the case of LPLEERVTHFRDMLLERGVSAFSTWEKELHKIVFDGRYLLLNSEERKQIFEQFVKTR [P36G], the abundance fitness is reported as -0.514 ± 0.087.
For LPLEERVTHFRDMLLERGVSALSTWEKELHKIVFDPRYLLLNSEERKQIFEQFVKTR [F22L], the abundance fitness was -0.045 ± 0.14.
LPLEERVTHFRDMLLERGVSAVSTWEKELHKIVFDPRYLLLNSEERKQIFEQFVKTR [F22V] showed an abundance fitness of -0.439 ± 0.12.
Work on LPLEERVTHFRDMLLERGVSADSTWEKELHKIVFDPRYLLLNSEERKQIFEQFVKTR [F22D] yielded an abundance fitness of 0.292 ± 0.082.
LPLEERVTHFRDMLLERGVSAFSTWEKELHKIVFDPRYLLLNSEERKQIFYQFVKTR [E51Y] gave an abundance fitness of -0.375 ± 0.077.
LPLEERVTHFRDMLLERGVSAFSTWEKELHKIVFDPRYLLLNSEERKQIFDQFVKTR [E51D] gave an abundance fitness of -0.04 ± 0.097.
In the case of LPLEERVTHFRDMLLERGVSAFSTWEKELHKIVFDPRYLLLNSEERKQIFVQFVKTR [E51V], the abundance fitness is reported as -0.669 ± 0.16.
In the case of LPLEERVTHFRDMLLERGVSAFSTWEKELHKIVFDPRYLLLNSEERKQIFCQFVKTR [E51C], the abundance fitness is reported as -0.96 ± 0.32.
LPLEERVTHFRDMLLERGVSAFSTWEKELHKIVFDPRYLLLNSEERKQIFMQFVKTR [E51M] gave an abundance fitness of -0.413 ± 0.093.
Variant LPLEERVTHFRDMLLERGVSAFSTWEKELHKICFDPRYLLLNSEERKQIFEQFVKTR [V33C] has an abundance fitness of -0.514 ± 0.46.
LPLEERVTHFRDMLLERGVSAFSTWEKELHKIPFDPRYLLLNSEERKQIFEQFVKTR [V33P] showed an abundance fitness of -0.112 ± 0.33.
Variant LPLEERVTVFRDMLLERGVSAFSTWEKELHKIVFDPRYLLLNSEERKQIFEQFVKTR [H9V] has an abundance fitness of -0.274 ± 0.19.
Variant LPLEERVTLFRDMLLERGVSAFSTWEKELHKIVFDPRYLLLNSEERKQIFEQFVKTR [H9L] has an abundance fitness of 0.279 ± 0.11.
LPLEERVTAFRDMLLERGVSAFSTWEKELHKIVFDPRYLLLNSEERKQIFEQFVKTR [H9A] showed an abundance fitness of 0.001 ± 0.076.
With LPLEERVTHFRDMLLERGVSAFSTWEKELHKIVFDPRYLLLNSERRKQIFEQFVKTR [E45R] the abundance fitness was -0.434 ± 0.16.
Work on LPLEIRVTHFRDMLLERGVSAFSTWEKELHKIVFDPRYLLLNSEERKQIFEQFVKTR [E5I] yielded an abundance fitness of -0.06 ± 0.16.
For LPLEFRVTHFRDMLLERGVSAFSTWEKELHKIVFDPRYLLLNSEERKQIFEQFVKTR [E5F], the abundance fitness was -0.481 ± 0.35.
In the case of LPLERRVTHFRDMLLERGVSAFSTWEKELHKIVFDPRYLLLNSEERKQIFEQFVKTR [E5R], the abundance fitness is reported as -0.01 ± 0.17.
Variant LKLEERVTHFRDMLLERGVSAFSTWEKELHKIVFDPRYLLLNSEERKQIFEQFVKTR [P2K] has an abundance fitness of 0.925 ± 0.075.
Work on LRLEERVTHFRDMLLERGVSAFSTWEKELHKIVFDPRYLLLNSEERKQIFEQFVKTR [P2R] yielded an abundance fitness of 0.776 ± 0.092.
Variant LPLEERVTHFRDMLFERGVSAFSTWEKELHKIVFDPRYLLLNSEERKQIFEQFVKTR [L15F] has an abundance fitness of -0.325 ± 0.38.
Variant LPLEERVTHFRDMLEERGVSAFSTWEKELHKIVFDPRYLLLNSEERKQIFEQFVKTR [L15E] has an abundance fitness of 0.351 ± 0.26.
In the case of LPLEERVTHFGDMLLERGVSAFSTWEKELHKIVFDPRYLLLNSEERKQIFEQFVKTR [R11G], the abundance fitness is reported as -0.586 ± 0.26.
In the case of LPLEERVTHFLDMLLERGVSAFSTWEKELHKIVFDPRYLLLNSEERKQIFEQFVKTR [R11L], the abundance fitness is reported as -0.396 ± 0.17.
LPLEERVTHFRDMLLERGVSAFSTWEKELHKIVFDPRYLLLMSEERKQIFEQFVKTR [N42M] gave an abundance fitness of -0.687 ± 0.33.
For LPLEERVTHFRDMLLERGVSAFSGWEKELHKIVFDPRYLLLNSEERKQIFEQFVKTR [T24G], the abundance fitness was -0.662 ± 0.13.
LPLEERVTHFRDMLLELGVSAFSTWEKELHKIVFDPRYLLLNSEERKQIFEQFVKTR [R17L] showed an abundance fitness of -0.312 ± 0.23.
LPLEERVTHFRDPLLERGVSAFSTWEKELHKIVFDPRYLLLNSEERKQIFEQFVKTR [M13P] gave an abundance fitness of -0.257 ± 0.39.
LPLEERVTHFRDALLERGVSAFSTWEKELHKIVFDPRYLLLNSEERKQIFEQFVKTR [M13A] gave an abundance fitness of -0.896 ± 0.15.
Variant LPLEERVTHFRDFLLERGVSAFSTWEKELHKIVFDPRYLLLNSEERKQIFEQFVKTR [M13F] has an abundance fitness of -0.765 ± 0.46.
